Measured values reported in the RNAGym collection of RNA variant scans (doi:10.7554/elife.80360).

B1: Hammerhead Ribozyme (parent)
chain: ACCGGAUGUGCUUUCCGGUCUGAUGAGUCCGUGAGGACGAAACAG

Variants of: B1
Test: self-cleavage, relative activity (ratio to wild type); higher = more cleavage; co-transcriptional

Row | Variant | self-cleavage
1 | ACCGGAUGUGCUUUCCGGGCUGAUGAGUCCCUGAGGACGAAACAG | 0.431
2 | ACCGGAUGUGCUUUCCGGUCUGAUGAGUCCGCGAGGACGACACAG | 0.294
3 | ACCGGAUGUUCUUUCCGGUCUGAUGAGUCCGUGAGGACGAAAUAG | 0.537
4 | ACCGGAUGUGCUUUCCGGUCUGAUGAGUCCGGGAGCACGAAACAG | 0.464
5 | ACCGGAUGUGCUUGCCGGUCUGGUGAGUCCGUGAGGACGAAACAG | 0.248
6 | ACCGGAUGUGCUUUCCGGUCUGAUAAGUCCGUGAGGACUAAACAG | 0.351
7 | ACCGGAUGUGCUUUCCGUUCUGAUGAGUCCGUAAGGACGAAACAG | 0.948
8 | ACCGGACGUGCUUUCCGGUCUGAUGAGUCCGUGAGGACGAUACAG | 0.336
9 | ACCGGAUGUGCUUUCCGGUCUGAUGAGUCCGUGAGAACGAAGCAG | 0.25
10 | ACCGGAUGUGCUUUCCGGUCUGAUGAGUCCCUGAGGACGAAACUG | 0.655
11 | ACCGGAUGUGGUUUCCGGUCUGAUGAGGCCGUGAGGACGAAACAG | 0.849
12 | ACCGGAUGUGCUUUCGGGUCUGAUGAGUCCGUGAGGACGAGACAG | 0.398
13 | ACCGGAUGUGCUUUCCGGUCUGAUGAGUCCGUGAGGACCAAAAAG | 0.336
14 | ACCGGAUGUGCUUUCCGGUCUGAUGAGUCCGUGAGGCCGAAACCG | 0.28
15 | ACCGGAUGUGCUUUCCGGUCUGAUGAGUCCGUGAAGACGCAACAG | 0.435
16 | ACCGGAUGUGCUUUCCUGUGUGAUGAGUCCGUGAGGACGAAACAG | 0.359
17 | ACCGGAUUUGCUUUCCGGUCUGAUGAGUGCGUGAGGACGAAACAG | 0.847
18 | ACCGGAUGUGCUUUCCGGUCUGAUGAGUCUGUGAGCACGAAACAG | 0.667
19 | ACCGGAUGUGCAUUCCGGUCUGCUGAGUCCGUGAGGACGAAACAG | 0.366
20 | ACCGGAUGUGCUUUCCGGUCUGAUGACUCCGUGAGGACCAAACAG | 0.261
21 | ACCGGAUGUGCUUUCCGGACUGAUGAGUCCGUGUGGACGAAACAG | 0.388
22 | ACCGGAUGUGCUUUCCGGUCUGGUGAGUCCGUGCGGACGAAACAG | 0.338
23 | GCCGGAUGUGCUUCCCGGUCUGAUGAGUCCGUGAGGACGAAACAG | 1.19

Row | Variant | self-cleavage
24 | ACCGGAUCUGCUUUCCGGUCUGAUGAGUCCGUGGGGACGAAACAG | 1.11
25 | ACCGGAUGUGCUCUCCGGUCUGAUGAGUCCGUGGGGACGAAACAG | 0.776
26 | ACCGGAUGUCCUUUCCGGUCUGAUGAGUCCGUGAGGACGGAACAG | 0.398
27 | ACCCGAUGUGCUUUCCGGUCUGAUGAGUCCGUGAGGACGAAACAU | 0.4
28 | ACCGGAUGUGCUUUCCGGUCUGAUUAGUCCGUCAGGACGAAACAG | 0.305
29 | ACCGGAUGUACUUUCCGGUCUGAUGAGUCCAUGAGGACGAAACAG | 1.08
30 | ACCGGAUGUGCUUUCCGGUCUGAUGAUUCCGUGAGGACGAAGCAG | 0.261
31 | ACCGGAUGUGCUUUCCGGUCUGAUGAGUCCGUGAGGACGAAAGCG | 0.464
32 | ACCGGAUGUGAUUUCGGGUCUGAUGAGUCCGUGAGGACGAAACAG | 1.1
33 | ACCGGAUGUGCCUUCCGGUCUAAUGAGUCCGUGAGGACGAAACAG | 0.36
34 | ACCGGAUGUCCUUUCCGGUCGGAUGAGUCCGUGAGGACGAAACAG | 0.414
35 | ACCGGAUGUGCUUUCCGUUCUGAUGAGUGCGUGAGGACGAAACAG | 0.575
36 | ACCGGAUGUGCUUUCCGGUCUGAUGAGUCCGUGCGGACGAAUCAG | 0.322
37 | ACCGGAUGUGCUCUCCGGUCUGAUGAGUUCGUGAGGACGAAACAG | 0.819
38 | ACCGGAUGCGCUUUCCGGUCUGAUGAGUCCGUGAGGAAGAAACAG | 0.618
39 | ACCGGAUGUGCUUUCCGGUCUGAUGAGUCCGUGUGGACGAAACGG | 1.01
40 | ACCGGAUGUGCUUUCCGGUCUGAUGAGUCCAUUAGGACGAAACAG | 1.15
41 | ACCGGAUGUGCUUUCGGGUCUGAUGAGUCCGUGAGGACGAACCAG | 0.334
42 | ACCGGAUGUGCUUUCCGGUCUGAUGAGUCCGUUAGGAUGAAACAG | 0.995
43 | ACAGGAUGUGCUUUUCGGUCUGAUGAGUCCGUGAGGACGAAACAG | 0.518
44 | ACCGGUUGUGCUUUCCGGUCUGAUUAGUCCGUGAGGACGAAACAG | 0.355
45 | ACCGGAUGUGCUUUGCGGUGUGAUGAGUCCGUGAGGACGAAACAG | 0.283
46 | ACCGGAUGUGCUUUCCGGUCUGAUGAGUCCGAGAGGACCAAACAG | 0.485

Row | Variant | self-cleavage
47 | AGCGGAUGUGCUUCCCGGUCUGAUGAGUCCGUGAGGACGAAACAG | 0.317
48 | GCCGGAUGGGCUUUCCGGUCUGAUGAGUCCGUGAGGACGAAACAG | 1.58
49 | ACCGGAUGUGCUUUCCCGUCUGAUGAGUCCGUGCGGACGAAACAG | 0.438
50 | ACCGGAUGUGCUUACCGGUCUGAUGAGUCCGUGAGGACGAAACAG | 0.954
51 | ACCGGAUGUGCUUUCCGGUCUGAUAAGUCCGUGACGACGAAACAG | 0.347
52 | ACCGGAUGUGCUUUCCGGUCAGAUGAGUCCGUGAGGACGUAACAG | 0.338
53 | ACCGGAUGUGCUUUCCGGUCUCAUGAGCCCGUGAGGACGAAACAG | 0.298
54 | ACCGGAUGUGCUUUCCGGUCUGAUGAGUCCGUCAGGACGAACCAG | 0.268
55 | ACCGGAUGGGCUUUCCGGUCUGAUGAGUCCGUGAGGACGAAACAA | 0.426
56 | ACCGGUUGUGCUUUCCGGUCUGAUGUGUCCGUGAGGACGAAACAG | 0.588
57 | ACCGGAUGUGCUUUCCGGUCUGUUGAGGCCGUGAGGACGAAACAG | 0.36
58 | ACAGGAUGUGCUUUCCGGUCUGAUGAGUCCGUGAGGACGAAACAU | 0.448
59 | ACCGGAUGUGCUUUCCGGACUGAUGAGUCCGUGAGGACGUAACAG | 0.35
60 | ACCGGAUGUGCUUUCCGGUCUGAUGGGUCCGAGAGGACGAAACAG | 0.373
61 | ACCGGAUGUGCUUUCCGGACUGAUGAGUCCGUGAGGUCGAAACAG | 0.281
62 | ACCGGAUGUACUUUCCGGUCUGAUGAGUCCGUGACGACGAAACAG | 0.763
63 | ACCAGAUGUGCUUUCCGGUCUGAUGAGUCCGAGAGGACGAAACAG | 0.579
64 | ACCGGAUGUGCUUUCCGGUCUGAUGCGUCCGCGAGGACGAAACAG | 0.803
65 | ACCGGAUGUGCUUUCCGGUCUGAUGAGUCCUUGAGGACGAAAAAG | 0.376
66 | AACGGAUGUGCUUUCCGGUCUGAUGAGUCCGUGAGGACAAAACAG | 0.319
67 | ACCGGAUGAGCUUUCCGGUCUGACGAGUCCGUGAGGACGAAACAG | 1.38
68 | ACGGGAUGUGCUUUCCGGUCUGAUGAGUCCGUGAGGUCGAAACAG | 0.327
69 | ACCUGAUGUGCUUUCCGGUCUGAUGAGUCGGUGAGGACGAAACAG | 0.305

Row | Variant | self-cleavage
70 | ACCGGAUGUGCUUUCCGGGCUGAUGAGUCCGUGAGGAUGAAACAG | 0.364
71 | ACCGGAUGUGCUUUCCGGUCCGAUGAGUCCGUGAGGACAAAACAG | 0.304
72 | AGCGAAUGUGCUUUCCGGUCUGAUGAGUCCGUGAGGACGAAACAG | 0.295
73 | ACCGGAUGUGCUUUCCGGUCCGAUGAGUCCGUGAGUACGAAACAG | 0.665
74 | ACCGGAUGUGCUUUCCUGUCUGAUGAGUCCGUGAGGACGUAACAG | 0.376
75 | ACCGUGUGUGCUUUCCGGUCUGAUGAGUCCGUGAGGACGAAACAG | 0.644
76 | ACCGGAUGUGCUUUCCGGUCAGAUGAGUCCGUGAGGACGAAAUAG | 0.398
77 | ACCGGAUGUGCUCUCCGGUCUGAUGAGUCCGUGAGGACGAAACGG | 1.49
78 | ACCGGAUGAGCUUUCCGGUCUGAUGAGUCCGUGAGCACGAAACAG | 0.573
79 | ACAGGAUGUGCUUUCCGGUCUGAUGAGUCCGUGAGGGCGAAACAG | 0.539
80 | ACCGGAUGUGCUUGCCGGUCUGAUGAGUCCGAGAGGACGAAACAG | 0.811
81 | ACCGGACGUGCUUUCCGGUCUGAUGAGUCCGUGGGGACGAAACAG | 0.863
82 | ACCAGAUGUGCUUUCCGGUCUGAUGAGUCCGUGAGGACGAAUCAG | 0.319
83 | ACCGGAUGUGCUGUCCGGUCUGAUGAGCCCGUGAGGACGAAACAG | 1.01
84 | ACCGGAUGUGCUUUCCAGUCUGAUUAGUCCGUGAGGACGAAACAG | 0.372
85 | ACCGGAUGUGCUUGCCGGUCUGAUGAGUCCGUGAGGUCGAAACAG | 0.566
86 | ACCGGGUGUGCUUUCCGGUCUGAUGAGUCCGUGAGGACGACACAG | 0.299
87 | ACCGGAUGUGCUAUCCGGUCUGAUGAGUCCGUGAGGACGAACCAG | 0.314
88 | AUCGGAUGUGCUUUCCGGUCUGAUGAGUCUGUGAGGACGAAACAG | 1.04
89 | ACCGGAUGUGCUUUCCGGUCUGACGAGUCCCUGAGGACGAAACAG | 1.02
90 | ACCGGAUGUGCUAUCCGGUCUAAUGAGUCCGUGAGGACGAAACAG | 0.298
91 | ACCGGAUGUGCUUCCCGGUUUGAUGAGUCCGUGAGGACGAAACAG | 0.457
92 | ACCGGAAGUGCUUUCCGGUCUGAUGUGUCCGUGAGGACGAAACAG | 0.556

Row | Variant | self-cleavage
93 | ACCGGAUGCGCUUUCCGGUCUGAUGAGUCCGUGAGGACGAACCAG | 0.351
94 | ACCGGAUGUGCUUUCCGGUCUGAUGAGUCCAGGAGGACGAAACAG | 0.529
95 | ACCGGAAGUGCUUUCCGGUCUGAAGAGUCCGUGAGGACGAAACAG | 1.26
96 | ACCGGAUGUGCUUUCCGUUCUGAUGAGUCCGUGAGGACGAAAGAG | 0.373
97 | ACCGGAUGUGCUUUCCGGUCUCAUGAGUCCGUGUGGACGAAACAG | 0.318
98 | ACCGGAUGUGCUUUCCGGUCUUAUGAGUCCGUGAGGAAGAAACAG | 0.305
99 | ACCGGAUGUGCUUUCAGGUCUGAUGAAUCCGUGAGGACGAAACAG | 0.715
100 | ACCGGACGUGCUUUCCGGUCUGAUGAGUCCGUGAGGACGAAACAG | 1.05
101 | AACGGAUGUGCUUUCCGGUGUGAUGAGUCCGUGAGGACGAAACAG | 0.288
102 | ACCGGAUGUGCUUUCCGGUCUGAUGAGUCCAUGAGGACGAAAUAG | 0.499
103 | ACCGGAUGUGCUUUCCGGCCUGAUGAGUCCGUGAAGACGAAACAG | 0.64
104 | ACCGGAUGUGCUUUCCGGUCUGAGGAGUCCGUGAGGACGAACCAG | 0.343
105 | UCCGGAUAUGCUUUCCGGUCUGAUGAGUCCGUGAGGACGAAACAG | 0.687
106 | ACCGGAUGUGCUUUCCGGUCUCAUGAGUCCGAGAGGACGAAACAG | 0.371
107 | ACCGGAUGUGCUUUCCGGUCUGAGGAGUCCGUGGGGACGAAACAG | 0.902
108 | ACCGGAUGUGCUUUUCGUUCUGAUGAGUCCGUGAGGACGAAACAG | 0.643
109 | ACCGGAUGUGCUUUCCGGUCUGAUGAGUCCGUGAGGUCCAAACAG | 0.326
110 | ACCGGAUGCGCUUUCCGGUCUGAUUAGUCCGUGAGGACGAAACAG | 0.309
111 | ACCGGAUGUGCUUUCCGGUCUGUUGAGUCCGUGAGGACUAAACAG | 0.315
112 | ACCGGAUGUGCAUUCCGGUCUGAUGAGGCCGUGAGGACGAAACAG | 0.92
113 | ACCGGAUGUGCUUUCCGGUCUGAUGAGUCCGUGAAGCCGAAACAG | 0.364
114 | ACCGGAAGUGCCUUCCGGUCUGAUGAGUCCGUGAGGACGAAACAG | 0.79
